Patent publication US20160187342, “DNA Aptamer Specifically Binding to EN2 (Engrailed-2) and Use Thereof” (POSTECH ACADEMY-INDUSTRY FOUNDATION, published 2016)

Assays:
[1] = biological target: T1, EN2 (Engrailed-2) (UniProt P19622 P19622:1-333); test: FAM fluorescence of protein-bound aptamer; details: tags: (His)6-tag, pET28a, E. coli BL21(DE3), hairpin
T1 sequence: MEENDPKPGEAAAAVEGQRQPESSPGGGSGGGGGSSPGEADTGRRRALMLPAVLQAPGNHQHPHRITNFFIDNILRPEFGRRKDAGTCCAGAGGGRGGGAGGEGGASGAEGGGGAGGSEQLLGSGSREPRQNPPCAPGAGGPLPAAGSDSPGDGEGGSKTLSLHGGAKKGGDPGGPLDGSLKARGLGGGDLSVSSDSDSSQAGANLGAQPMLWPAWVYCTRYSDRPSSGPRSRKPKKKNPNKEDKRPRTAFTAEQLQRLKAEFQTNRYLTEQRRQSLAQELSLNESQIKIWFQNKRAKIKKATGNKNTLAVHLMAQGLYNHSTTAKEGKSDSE
Description: (§1) Then, in order to compare binding strengths between the EN2 protein and each of the DNA aptamers, a dissociation constant (Kd) between the EN2 protein and each of the DNA aptamers was measured. In this case, fluorescein amidite (FAM) was attached to the DNA aptamer as a marker, and an amount of the DNA aptamer bound to the protein was measured according to a fluorescent signal of FAM.

[2] = biological target: TATA box binding protein (TBP) (UniProt P20226 P20226:1-339); test: impedance biosensor on gold, 10 pM protein in artificial urine; details: label: FAM (Kd assay); poly A linker to gold surface (biosensor); hairpin, loop 8 bases, stem 14 bp
TATA box binding protein (TBP), sequence (P20226 whole entry, one chain of several): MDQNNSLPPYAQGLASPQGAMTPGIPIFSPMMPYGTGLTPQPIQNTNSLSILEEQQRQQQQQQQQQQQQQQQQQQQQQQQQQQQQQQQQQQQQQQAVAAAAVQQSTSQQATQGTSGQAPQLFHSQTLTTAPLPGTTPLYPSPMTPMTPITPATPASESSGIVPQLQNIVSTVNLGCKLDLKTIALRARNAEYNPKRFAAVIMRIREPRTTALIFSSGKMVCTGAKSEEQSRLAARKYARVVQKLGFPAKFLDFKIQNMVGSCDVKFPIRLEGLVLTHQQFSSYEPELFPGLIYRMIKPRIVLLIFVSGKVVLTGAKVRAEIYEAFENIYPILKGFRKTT
Description: In order to identify selective binding of the DNA aptamer, a binding specificity with respect to several protein samples was identified. Each protein was mixed in an artificial urine medium to have a concentration of 10 pM, and then it was identified whether binding to the DNA aptamer was performed.

[3] = biological target: T1, EN2 (Engrailed-2); test: FAM fluorescence of protein-bound aptamer; printed as hDNA5; details: tags: (His)6-tag, pET28a, E. coli BL21(DE3); label: FAM; hairpin, loop 8 bases, stem 10 bp
Description: as §1

[4] = biological target: T1, EN2 (Engrailed-2); test: FAM fluorescence; second strand printed 3'-5' in Table 1; EMSA, SPR and SYBR Green I displacement also showed binding of TAATTA dsDNA; details: tags: (His)6-tag, pET28a, E. coli BL21(DE3); label: FAM

Binder: CGTGTAATTACCTCCAGACCAGGAGAGGTAATTACACG (structured_DNA) [hpDNA4]
- Kd ([1]; label: FAM, loop 10 bases, stem 14 bp): 88.8 nM

Binder: CGTGTAATTACCTCCAGGGAGAGGTAATTACACG (structured_DNA) [hpDNA2]
- Kd ([1]; label: FAM, loop 6 bases, stem 14 bp): 98.8 nM

Binder: CGTGTAATTACCTCCAGAAGGAGAGGTAATTACACG (structured_DNA) [hpDNA3]
- Kd ([1]; label: FAM (Kd assay), poly A linker to gold surface (biosensor), loop 8 bases, stem 14 bp): 66.3 nM
- binding result [2]: no binding

Binder: CGTAATTACCCAGAAGGAGGTAATTACG (structured_DNA) [hpDNA5]
- Kd [3]: 68.8 nM

Binder: CGCAGTGTAATTACCTCGACCAGAAGGAGTCGAGGTAATTACACTGCG (structured_DNA) [hpDNA6]
- Kd ([1]; label: FAM, loop 8 bases, stem 20 bp): 61 nM

Binder: CGTGTAATTACCTCCAGAGAGGTAATTACACG (structured_DNA) [hpDNA1]
- Kd ([1]; label: FAM, loop 4 bases, stem 14 bp): 85.7 nM

B1: dsDNA probe (dsDNA)
DNA 1: CGTGTAATTACCTC
DNA 2: GAGGTAATTACACG
- Kd [4]: 95.2 nM
